These results are taken from PMC4499801, “Resolving single membrane fusion events on planar pore-spanning membranes” (Scientific Reports, 2015).

Primed or numbered codes have the meaning given here. Where no end group is shown, it is not given here. PEG12′ = PEG spacer of 12 units between cholesterol and peptide

The target of assay [1] is T1, syntaxin 1A (residues 183-288) (Rattus norvegicus, UniProt P32851 183-288).
T1 construct: syntaxin 1A, Rattus norvegicus, residues 183-288; source: E. coli BL21(DE3), pET28a, purified (Ni-NTA, MonoQ, 1% CHAPS); also reconstituted alone into pore-spanning membranes
As to the kind of experiment: assembly of the complex from purified proteins and purification by ion exchange chromatography (MonoQ); three purified proteins mixed with an excess of SNAP25a (1:1:1.5) in 1% CHAPS, over night at 7 °C, complex purified by MonoQ. As to conditions: both partners purified.

The target of assay [2] is T2, cholesterol-PEG12-(EIAALEK)4 (cholesterol-PEG12 anchor, as printed: cholesterol-PEG12-(EIAALEK)4).
T2 construct: printed as (EIAALEK)4, written out four times; coiled coil forming lipidated peptide; also called SNARE fusion mimetic; lipopeptide; source: reconstituted into pore-spanning membranes
T2 peptide: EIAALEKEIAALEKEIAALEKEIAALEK
As to the kind of experiment: single vesicle docking on planar pore-spanning membranes (two color confocal fluorescence microscopy); target reconstituted in pore-spanning membranes (DOPC/POPE/POPS/cholesterol 5:2:1:2, 1,000:1, Oregon Green DHPE), binder in Texas Red DHPE doped LUVs (1,000:1, 325 nm); buffer A (20 mM HEPES, 100 mM KCl, 1 mM DTT, pH 7.4); time series of 300 s. The conditions noted are these: both partners purified.

T1 sequence (P32851 183-288): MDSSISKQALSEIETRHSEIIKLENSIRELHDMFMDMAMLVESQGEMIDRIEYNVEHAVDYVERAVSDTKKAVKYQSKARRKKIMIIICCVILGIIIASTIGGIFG

B1: synaptobrevin 2 (residues 49-96, soluble C-terminal fragment) (domain or fragment, Rattus norvegicus, UniProt P63045 49-96, looked up)
chain: NVDKVLERDQKLSELDDRADALQAGASQFETSAAKLKRKYWWKNLKMM
notes: synaptobrevin 2, Rattus norvegicus, residues 49-96; also called C-terminal soluble fragment of synaptobrevin 2 (residues 49-96); soluble fragment of synaptobrevin 2; source: E. coli BL21(DE3), pET28a, purified (Ni-NTA, MonoS)
On to B1, for which the binding result in assay [1] is reported as “binds”.

B2: cholesterol-PEG12-(KIAALKE)4 (peptide)
peptide: {cholesterol-PEG12′}-KIAALKEKIAALKEKIAALKEKIAALKE
notes: printed as (KIAALKE)4, written out four times; coiled coil forming lipidated peptide; also called SNARE fusion mimetic; lipopeptide; source: reconstituted into large unilamellar vesicles
B2: the binding result in assay [2] is “binds”.
